The record followed here is publication PMC2647295.

The target in the series is MUC1-5TR (unglycosylated, five MUC1 tandem repeats) (UniProt P15941 126-225). The series can be described thus: SPR.
Sequence of MUC1-5TR (unglycosylated, five MUC1 tandem repeats) (P15941 126-225): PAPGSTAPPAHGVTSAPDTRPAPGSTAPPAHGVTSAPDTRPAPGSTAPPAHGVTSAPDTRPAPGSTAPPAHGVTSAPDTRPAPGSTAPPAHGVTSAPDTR
Consider TACTGCATGCACACCACTTCAACTA (ssDNA) [5TR4], for which binding was put at a Kd of 69 nM.

In the case of GAAGTGAAAATGACAGAACACAACA (ssDNA) [5TR1], binding was put at a Kd of 21 nM.

Molecule CAAACAATCAAACAGCAGTGGGGTG (ssDNA) [5TR3] registered a Kd of 83 nM.

GGCTATAGCACATGGGTAAAACGAC (ssDNA) [5TR2] yielded a Kd of 85.2 nM.
